According to patent US5714144A, “Human tissue-type plasminogen activator variant” (Genentech, Inc., priority 1995, dated 1998):

Experiments:
fibrin = conditions: versus t-PA control
[1] = removal of sialic acid or chemical modification of carbohydrate; cited from earlier work

B1: glutamine117 glutamic acid275 t-PA: t-PA Carbohydrate Variant Gln117 Glu275 Equivalent (protein, UniProt P00750 36-562, looked up, variant N117Q R275E)
Tissue-type plasminogen …: SYQVICRDEKTQMIYQQHQSWLRPVLRSNRVEYCWCNSGRAQCHSVPVKSCSEPRCFNGGTCQQALYFSDFVCQCPEGFAGKCCEIDTRATCYEDQGISYRGTWSTAESGAECTNWQSSALAQKPYSGRRPDAIRLGLGNHNYCRNPDRDSKPWCYVFKAGKYSSEFCSTPACSEGNSDCYFGNGSAYRGTHSLTESGASCLPWNSMILIGKVYTAQNPSAQALGLGKHNYCRNPDGDAKPWCHVLKNRRLTWEYCDVPSCSTCGLRQYSQPQFEIKGGLFADIASHPWQAAIFAKHRRSPGERFLCGGILISSCWILSAAHCFQERFPPHHLTVILGRTYRVVPGEEEQKFEVEKYIVHKEFDDDTYDNDIALLQLKSDSSRCAQESSVVRTVCLPPADLQLPDWTECELSGYGKHEALSPFYSERLKEAHVRLYPSSRCTSQHLLNRTVTDNMLCAGDTRSGGPQANLHDACQGDSGGPLVCLNDGRMTLVGIISWGLGCGQKDVPGVYTKVTNYLDWIRDNMRP
fibrin stimulation and specific activity (fibrin): superior to t-PA control in fibrin stimulation and specific activity

B2: ceruloplasmin: ceruloplasmin after removal of sialic acid (protein, UniProt P00450 20-1065, looked up)
Ceruloplasmin: KEKHYYIGIIETTWDYASDHGEKKLISVDTEHSNIYLQNGPDRIGRLYKKALYLQYTDETFRTTIEKPVWLGFLGPIIKAETGDKVYVHLKNLASRPYTFHSHGITYYKEHEGAIYPDNTTDFQRADDKVYPGEQYTYMLLATEEQSPGEGDGNCVTRIYHSHIDAPKDIASGLIGPLIICKKDSLDKEKEKHIDREFVVMFSVVDENFSWYLEDNIKTYCSEPEKVDKDNEDFQESNRMYSVNGYTFGSLPGLSMCAEDRVKWYLFGMGNEVDVHAAFFHGQALTNKNYRIDTINLFPATLFDAYMVAQNPGEWMLSCQNLNHLKAGLQAFFQVQECNKSSSKDNIRGKHVRHYYIAAEEIIWNYAPSGIDIFTKENLTAPGSDSAVFFEQGTTRIGGSYKKLVYREYTDASFTNRKERGPEEEHLGILGPVIWAEVGDTIRVTFHNKGAYPLSIEPIGVRFNKNNEGTYYSPNYNPQSRSVPPSASHVAPTETFTYEWTVPKEVGPTNADPVCLAKMYYSAVEPTKDIFTGLIGPMKICKKGSLHANGRQKDVDKEFYLFPTVFDENESLLLEDNIRMFTTAPDQVDKEDEDFQESNKMHSMNGFMYGNQPGLTMCKGDSVVWYLFSAGNEADVHGIYFSGNTYLWRGERRDTANLFPQTSLTLHMWPDTEGTFNVECLTTDHYTGGMKQKYTVNQCRRQSEDSTFYLGERTYYIAAVEVEWDYSPQREWEKELHHLQEQNVSNAFLDKGEFYIGSKYKKVVYRQYTDSTFRVPVERKAEEEHLGILGPQLHADVGDKVKIIFKNMATRPYSIHAHGVQTESSTVTPTLPGETLTYVWKIPERSGAGTEDSACIPWAYYSTVDQVKDLYSGLIGPLIVCRRPYLKVFNPRRKLEFALLFLVFDENESWYLDDNIKTYSDHPEKVNKDDEEFIESNKMHAINGRMFGNLQGLTMHVGDEVNWYLMGMGNEIDLHTVHFHGHSFQYKHRGVYSSDVFDIFPGTYQTLEMFPRTPGIWLLHCHVTDHIHAGMETTYTVLQNEDTKSG
modifications: desialylated
notes: ceruloplasmin after removal of sialic acid
half-life change [1]: decreases its half-life dramatically
